Laboratory results reported in FireProtDB (doi:10.1021/bi980431i).

Settings: Homo sapiens; pH 2.7; Thermal; DSC; glycine 0.05 M; reversible: yes; whole UniProt chain shown

B1: Lysozyme C wild type, P61626 (protein)
chain: MKALIVLGLVLLSVTVQGKVFERCELARTLKRLGMDGYRGISLANWMCLAKWESGYNTRATNYNAGDRSTDYGIFQINSRYWCNDGKTPGAVNACHLSCSALLQDNIADAVACAKRVVRDPQGIRAWVAWRNRCQNRDVRQYVQGCGV
For B1, the Tm was 64.9 °C, the “heat capacity change of unfolding” value was 1.58 kcal/mol/K and the “unfolding enthalpy (calorimetric)” value was 114 kcal/mol. The “unfolding enthalpy (van 't Hoff)” value was 120 kcal/mol.
